Source: patent CN108059681A (BEIJING GEGEN BIOTECHNOLOGY CO LTD; YICON BEIJING MEDICAL …, dated 2018)

Target: T1, EGFR蛋白 (UniProt P00533 25-645, limits assumed)
T1 construct: The construct is not described; also called 表皮生长因子受体
Experiment: affinity constant; method not stated

B1: EGFR ScFv (抗EGFR单链抗体) (scFv)
scFv: QVQLQQWGGGVVQPGRSLRLSCAASGFTFSSYAMHWVRQAPGKGLEWVAVISYDGSNKYYADSVKGRFTISRDNSKNTLYLQMDSLRAEDTAVYYCARSGRYFDWLLPFDYGGGGSGGGGSELALTQPPSASVAPGKTARITCGGNNIGSKSVHWYQQKPGQAPVLVIYYDSDRPSGIPERFSGSNSGNTATLTISRVEAGDEADYYCQVWDSSSDQGVFGGGTQLTVL
notes: Human scFv from a phage library, expressed in E. coli; also called 抗EGFR ScFv
Kd: 0.284 nM
